Experimental data published in the DeepSol protein solubility set.

experiment: soluble on expression in E. coli; label from the status in PepcDB or PDB records

Sequence	soluble on expression in E. coli
MTTDLITVKQVTKTYGSKNKEIAALKDISLAIPKGTTLGIIGESGSGKTTLGKLIAGIESPTSGEIDYNGQVVHKLKAAHKRDFLQKVQFIFQDSTAALNPRWKVRDSVTEGYISFGLGDKGLKDKVAGDALERVGLDRRYINRYPHEFSGGQRQRIAIARALLCEPEVLILDEPISALDVSLQIQIVHLLQKIQREQGYTYLFIAHDLPMVHYLCEKVAVLYKGELVEFGNTDEVFRNPQHSYTKTLLASTPKISG	not soluble
MGSDKIHHHHHHMVIVARCNHNGSNLTEQFPPINDIRSNSRQLVRELGFMGGDFAGTDLPPSSVHALIEIEACPGITAKDLGKLLRLEKSSVSRMLRKLILSGDIVEQTDDVDSRIKRLRLTGQGREKVSGINGFANRQVSGALAQLTATDAHTILEGLRLYAGALGARTGTPASTVDIKQGYRPGIIARITQMHALYYARTSGFGQRFESVVAEGLAAFCNRLENPRNAIWVAMRGQEIIGSVAIDGEDLGADIAHLRWFIVDDGIRGGGVGRRLLATALAFADQAGFAETHLWTFNGLLAARHLYETHGFTCTEEYPGSQWGSEVLEQRFIRPRPE	not soluble
MSLATEQIQHIAIVGCVHGKYREMYRQLSEYEKSTGKEISFVICTGDMQTLRYEADLVYLKVPPKYKQMGDFHLYYEGKEKAPYLTLFIGGNHESSNVLLHLYNGGFVCFNMYYLGVCSCININGLRIVGVSGIYKSFDEKKPYTYPPSPNDVVSLFHTRNYVIQMLSNLSQSSQIDISLSHDWPQGIVMKGNYKQLYRFQPGFKKDGASLGSPINKVILNTLKPKYWISGHMHCEYHAEEGPTHFIALGKIGYKNAISYLDLPLKQKTDLEYDKDWVCNLIMTWPAFSNKAQFPDLSYSISELLSKRTKELDKKIIELWEKYIGLKIIYDSEGHHHHHH	not soluble
GPLGSMSVAGLKKQFHKATQKVSEKVGGAEGTKLDDDFKEMERKVDVTSRAVMEIMTKTIEYLAHLSSLLQAEALLAEAMLKFGRELGDDCNFGPALGEVGEAMRELSEVKDSLDIEVKQNFIDPLQNLHDKDLREIQHHLKKLEGRRLDFDYKKKRQGKIPDEELRQALEKFDESKEIAESSMFNLLEMDIEQVSQLSALVQAQLEYHKQAVQILQQVTVRLEERIRQA	soluble
SLLQLNSPHVHNLFNTPFSAAIMDDVVIGLEVHVQLNRLRTKLFCSCPLNYHQSPPNTHVCPVCLGMPGAMPVINKEAVKAAVKVAMALNAEIQPFTVFDRKNYFYPDLPKGFQISQYDRPLALGGYVTIELDGQEKRIQLKRVHMEEDPGKLSYKGSITTAKYSLIDYNRSGAPLLEIVTEPVMNSPKEARLFLNKLRMILEYLEVFDGDLEGAMRVDANISIRGSGRVEIKNISSFKGVEKALSYEIMRQKNLLQRGRSVVRETRHFDEARNITVSLRSKEEEQDYRYFPEPDLVPVLTEEIVREVEGTLPEMPEEKRERLKRQYGIGDNFAKVLILDVKMADYFEEVAKLVDPKLAASWIVDVLRGELNYRDWSFAKCWEVFKPEEFAKLLKYFEEDRITEKGVVEVIRTKLDEGGEIDAIIQKKGLFAIPKEEIIKFCKEAIEENPKAVEDYLSGKRQALNFLVGQVMKKTRGRADPADTAKLIEEMLS	soluble
NPNTCTESIGKVAPSYVDEPESEAPATAENTQPDVIIDWQAALKQSANKEDLAKDMLRMLIDFIPEVEEVVDHALEQDDYSREELIHVIHKLHGSSSYCGVPRLKSLCATLEHALRSGASIEEIEPEMFELQDEMIKVTTTAKLYLEQ	not soluble
MHHHHHHMKNVIFEDEEKSKMLARLLKSSHPEDLRAANKLIKEMVQEDQKRMEKISKRVNAIEEVNNNVKLLTEMVMSHSQGGAAAGSSEDLMKELYQRCERMRPTLFRLASDTEDNDEALAEILQANDNLTQVINLYKQLVRGEEVNGDATAGSIPG	soluble
LLPGAPDCRVYGWIYSSPTPGRAWVLLVHGLGGDHTFFEEPLGGYRVAYDLALRGFKVLAIDAAGHGESCIPGGESWRDKALTLEPGEFFLYHVYLSGVRAVEAALELGAEPG	not soluble
MSEPLIVGIRHHSPACARLVKSLIESQRPRYVLIEGPADFNDRVDELFLAHQLPVAIYSYCQYQDGAAPGRGAWTPFAEFSPEWQALQAARRIQAQTYFIDLPCWAQSEEEDDSPDTQDESQALLLRATRMDNSDTLWDHLFEDESQQTALPSALAHYFAQLRGDASGDALNRQREAFMARWIGWAMQQNNGDVLVVCGGWHAPALAKMWRECPQKINKPELPSLADAVTGCYLTPYSEKRLDVLAGYLSGMPAPVWQNWCWQWGLQKAGEQLLKTILTRLRQHKLPASTADMAAAHLHAMALAQLRGHTLPLRTDWLDAIAGSLIKEALNAPLPWSYRGVIHPDTDPILLTLIDTLAGDGFGKLAPSTPQPPLPKDVTCELERTAISLPAELTLNRFTPDGLAQSQVLHRLAILEIPGIVRQQGSTLTLAGNGEERWKLTRPLSQHAALIEAACFGATLQEAARNKLEADMLDAGGIGSITTCLSQAALAGLASFSQQLLEQLTLLIAQENQFAEMGQALEVLYALWRLDEISGMQGAQILQTTLCATIDRTLWLCESNGRPDEKEFHAHLHSWQALCHILRDLHSGVNLPGVSLSAAVALLERRSQAIHAPALDRGAALGALMRLEHPNASAEAALTMLAQLSPAQSGEALHGLLALARHQLACQPAFIAGFSSHLNQLSEADFINALPDLRAAMAWLPPRERGTLAHQVLEHYQLAQLPVSALQMPLHCPPQAIAHHQQLEQQALASLQNWGVFHV	not soluble
MKKFDVAIVGGGLAGLTASIYLAKVGRKVIVLEKSSQFGGRGMTTNKNGICMNLGAHALYRGGAAFITFNELGMTLPGGIPSTKAHGIWKGDIFTIPTDFRSILSTPLLSWSAKVQFSRLMIRLGNLDVGEVPKMSLTTWAENEIKDPMVRNIFYALCRTTTYTFAPTIQLASSVLKQIQLSIKEGVLYVDGGWETIITKLRAIANDIGVQFLAKKHVVEIEHSEGKQRIHCVDDEVFEVGTVIVTTPPKEACKIIKGAEGTSLHKWSEQSVPVTVGALDIGLRQLPNPTHQFVLGLDQPIFFTNQSRAAKLSEDGSIAVSLIKYHNPVLEMNHIHEDKEQLESTMELLHSNWKREVVAQQYLPKITVVHDFPHIDRVEKPGPNIPEMPGVYVAGDWAGHDEILADAAVASGKRAALHILKQYESEAVHHGNGAVILEHHHHHH	soluble
MGSDKIHHHHHHMKRKRIDGMNIEIITATIDMLEEIVAIQTAAFSEREPMTMSLNFTKEEMYDYFLKIIPESINSGLTMAAVDEDKGAIAAVVICFDAFAVFPNMEWTQKEIDGISKTNIFFEELEKPLNTNPAFKPEKCVRLMYVSTDENYLRRGIARKLGESMINRAIDLGYELMIADATNINSAGMFEKLGFWQEKVLPYKLVEKDGLKAFGNVEGECILYSRYLQENCFS	not soluble
MDVQKKAQMVIEEVKKAIVGKDNVLKLVLATILADGHILIEDLPGLAKTLMAKSFAKALGLEFKRVQFTPDLLPSDILGVNVFNQKTLEFEFKKGPVFTNILLADEINRAPPKTQSALLEAMQERQVTIEGVTYKLPKPFIVIATQNPIEQEGTYPLPEAQLDRFLVRLRMGYPSKDEEKEILRRRIERKQDEVEIETVLSPKDVLKMQREVEDVYVSDAIIEYITSLVWATREDKRDIEIGVSPRGSLALLKLSRAYAAIEGRDYVIPDDVKAVAIPALSHRIILKRELWYTRVSQESVIEKILERVPVPKFE	soluble
MSLNRVLDILKDRSLTYHQQIKDLAAYAESTIEVLNIDDETKKLIDEGCICTLFEGNAPFRPRYIIPDYSLLMEKGCEFLNLSVPEDIWEATNNLLIFYKHVPSITTFPVYLGNIDELLEPFIEDEREAKRAIKLFLKHIDRTLTDSFVHANIGPRETVAGRLILESMDELQCAVPNLSMKYDLENTPESFINLCAKVALSTAKPSFANHKMDVKSFGTDRYAIASCYNGFHIGGGGYTLVRIKLNEVAKKATSVEDFLENVLPYVSTKMIQYIDERIRFLVEETQFFTSNFLVKEGFIQKKLFTGMFGVVGLAEAVNTLLGAEKQSDRFGYSEKANKLGLRIIEKLNKIVSEHEAKHVNCFGGHYVLHAQVGIDLDQNVSPGCRIPVGEEPELFNHIMQSAPFHKYFYNGIGDIFVFEDTYNDHPEALVDIIKGAFNSGIRYMSVYGSGADVVRVTGYLAKRSEVEKLERGEAVLNNTDLFAMGAKNNCHAFERKIREGHHHHHH	soluble
MSFPAASIDLGTNTARLLIGSVEAGRIEHLLVKRHITRLGGGFTKERGISPEAWSRSLAALVDFADEMNRAGVVRVRAVATSAVRDAVNGGDFCADVAERTGISLEVIDGEEEALLTLAGVLSGLDRKEGRFFVFDVGGGSTEYTLASGNAPLYTESLPLGVVRLTEGKSDLPAMEEKVGRELAGLRERLAGRALDGQLAGATLVGTAGTATTLAAISLGMTDYDYRRVNNHLLSRDEIARILALLLPLSPAERLAVPGLEKGREDLIVAGTLITLATMDLFGFESMTVSDFGLLEGALIGLARTDELEHHHHHH	not soluble
IGIVNDMPLAVEALRRALAFEPQHQIVWVASNGAEAVTQCAADTPDVVLMDLLMPVMDGVEATRRIMAESPCAIVIVTVDIEQNVHRVFEAMGYGALDAVNTPALGIGNPQTAAAPLLRKIQNVGWLIGQRDNRGKVQVVPPKAGGARQRLVAIGASAGGPASLAVLLKQLPASFNAAVVLVQHVDEVFAAGMAEWLASESKLPVRLARDGEPPIPGQILLAGTNNHIRLLRNGSLVYTAEPRSFVYRPSIDVFFESVANYWRGDAVGVLLTGMGRDGAQGLKQMRERGFLTIAQDQASCAVYGMPKAAAAIDAAVQILSLEKIA	not soluble
MGSDKIHHHHHHAASEAEYGKVSKAWTLHADGSQEYRSSMELTLFTHTAMNSTYGESFIVYNPDFQTLKIHSSYTRQKDGTIVKTPDNAFVEVLPRFAADAPAYNQLKEMVVVHTGLELGATIYLDYSIITKPGYYPALDINERLQETSPVKECKVSISVPEGTPLACGLYGSPVKAVEESHDGIKEVHWTLRNIPASSREAFQPKNREASPHLVASTYPSGKAALATLDKRLKESQGYESKTFAQFLTDKSGNEQEKVNIIRDHILNNLSTCPIPMAMTGYTVRDIDTVLRSAYGTPLEIAQLLNVMLNAAGIPSEVLAVYPGHLDTDACGLAAIQTLAVKATVDGKDQYLSASPLTNRGGLDKVVSLSGTSIEIETTPIQIKESRSVAISADQAKDGFAICVLPAISAGIDSWGMSALNSKRSNLFELPSLIREEVTYTVTPAEGMKLQTSTQEQVISKPFGKVTRTITPRGNTIEVVRTIELNKQQFTPAEYSDVRSLIHEWTNPDNRVLLFSL	not soluble
MSLTNNLTTKASLVSSAFSPVLVVGKKKELRQPVKIKAVNWHHKKRPVELQVGNFPPERYVLSPGINNIETSIPEVTAPCELPIILKEQGKTVSKINEKATPVKKWTVYLVQHTHTDIGYTKPQTEILSEHLRYIDYAIEYCEQTKDYTNDAKFRWTCESAWAVDEYLKNRPEEQVNKLKKYIAEGQIEVASMYFNMSEIVDENSFKTFLQPVKEFRKHGIPSALAMQNDVNGIAWCLADYLPDLGIKYLWMGEHHYKSQVPFNMPTVFQWESPSGKPILTYRADHYNTGNFWGIEQGDIQKTEPKLLHYLSELERKHYPFDAVGVQYSGYFTDNSPPSIIECKLIREWNEKYAYPKLRSATASEFMDYVTERYGDKIPAYRAEGHHHHHH	soluble
MIGQTNLFDDVLKQDERFVIVVQALEEKNGQLLKRTLREYPGLNHKQMNDLFTHLKELFSEESFAENQSAFSITVYTNLDYTADQIYAHVKRFRGKHDWTQTAKLEHHHHHH	soluble
MGSDKIHHHHHHMGMSSDLIKPRRPSTSGCAIHCHDCSMEALCIPFTLNNDELDKLDSIIERKKPIQKGDLIFKSGDVLKSLYAIRSGTIKSYTITEQGDEQITGFHLAGDVIGFDGIHAQRHQSFAQALETSMVCEIPYDTLDDLSGSMPKLRQQIMRLMSNEIMSDQEMILLLSKKNAEERLAAFINNLANRFGNRGFSPHEFRLTMTRGDIGNYLGLTVETISRLLGRFQKSGLIEVKGKYISIIDHSALSTLAGNARIAT	not soluble
